What was measured:
hIL-4Rα-Mu239 = molecular target: T1, hIL-4Rα-Mu239 (human, UniProt P24394 26-232); test: SPR, Biacore T200, by the methods of Example 2
T1 construct: Printed positions fit the mature protein; also called M65I/D66A/D67A; not shown: C-terminal his-tag
T1 chain: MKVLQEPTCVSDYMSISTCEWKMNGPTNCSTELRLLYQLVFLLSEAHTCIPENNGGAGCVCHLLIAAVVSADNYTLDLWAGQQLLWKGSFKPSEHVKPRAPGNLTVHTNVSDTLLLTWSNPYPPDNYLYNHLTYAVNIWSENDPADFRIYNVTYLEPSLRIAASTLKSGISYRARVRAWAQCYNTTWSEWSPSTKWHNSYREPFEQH
Experimental: (§1) The protein A was chemically coupled to a CM5 chip, and an appropriate amount of the antibody was immobilized by a capture method such that the Rmax was less than 50 RU and the flow rate for the capture was 10 μl/min. The antigen was subject to gradient dilution, and the flow rate in the instrument was switched to 30 μl/min. The antigen was flowed through the reference channel and the channel with the immobilized antibody sequentially in an ascending order of concentration, and the running buffer was flowed through as a negative control. After each binding and dissociation was complete, the chip was regenerated with glycine, pH 1.5. Fitting was performed with the build-in software in the instrument according to a 1:1 binding model. The binding rate constant kₐ, the dissociation rate constant kd, and the equilibrium dissociation constant KD values of the antibody were calculated. Dupilumab was obtained by purchasing a commercially available medicine.
(§2) To further narrow down the key amino acids that PD2-31 binds to, multiple mutants of hIL-4Rα were designed in Loop 2 (V40FLLSEA46) and Loop 3 (M65[…]73) (Table 2). The wild-type hIL-4Rα (hIL-4Rα-ECD) and hIL-4Rα mutants were prepared using standard techniques. Briefly, the expression plasmids containing the extracellular domain of wild-type hIL-4Rα and different mutated hIL-4Rα were constructed and transfected into HEK 293F cells. After expression, the extracellular domain of wild-type hIL-4Rα and hIL-4Rα mutants with C-terminus his-tag were purified by Nickel chromatography. Purified proteins of wild-type hIL-4Rα and hIL-4Rα mutants were analyzed for interaction with PD2-31 and Dupilumab. The interaction was studied by Biacore T200, according to the methods in Example 2.

hIL-4Rα-Mu453 = molecular target: T2, hIL-4Rα-Mu453 (human, UniProt P24394 26-232); test: SPR, Biacore T200, by the methods of Example 2
T2 construct: Printed positions fit the mature protein; also called D66A/D67A; not shown: C-terminal his-tag
Experimental: as §1, §2

hIL-4Rα-Mu243 = molecular target: T3, hIL-4Rα-Mu243 (human, UniProt P24394 26-232); test: SPR, Biacore T200, by the methods of Example 2
T3 construct: Printed positions fit the mature protein; also called V69F/S70Q/A71L; not shown: C-terminal his-tag
T3 chain: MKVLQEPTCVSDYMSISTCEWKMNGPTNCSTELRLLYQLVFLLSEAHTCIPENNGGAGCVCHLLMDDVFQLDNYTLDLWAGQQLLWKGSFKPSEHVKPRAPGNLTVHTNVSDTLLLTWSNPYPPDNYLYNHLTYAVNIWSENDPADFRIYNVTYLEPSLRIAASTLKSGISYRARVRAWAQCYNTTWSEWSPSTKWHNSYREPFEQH
Experimental: as §1, §2

hIL-4Rα-Mu241 = molecular target: T4, hIL-4Rα-Mu241 (human, UniProt P24394 26-232); test: SPR, Biacore T200, by the methods of Example 2
T4 construct: Printed positions fit the mature protein; also called D67A/V68R/V69F; not shown: C-terminal his-tag
T4 chain: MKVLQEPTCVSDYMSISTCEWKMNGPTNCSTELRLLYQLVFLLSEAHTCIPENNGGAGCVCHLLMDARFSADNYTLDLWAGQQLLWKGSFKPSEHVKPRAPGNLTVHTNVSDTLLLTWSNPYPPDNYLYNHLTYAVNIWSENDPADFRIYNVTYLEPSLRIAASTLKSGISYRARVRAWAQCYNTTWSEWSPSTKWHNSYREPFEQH
Experimental: as §1, §2

hIL-4Rα-Mu242 = molecular target: T5, hIL-4Rα-Mu242 (human, UniProt P24394 26-232); test: SPR, Biacore T200, by the methods of Example 2
T5 construct: Printed positions fit the mature protein; also called V68R/V69F/S70Q; not shown: C-terminal his-tag
T5 chain: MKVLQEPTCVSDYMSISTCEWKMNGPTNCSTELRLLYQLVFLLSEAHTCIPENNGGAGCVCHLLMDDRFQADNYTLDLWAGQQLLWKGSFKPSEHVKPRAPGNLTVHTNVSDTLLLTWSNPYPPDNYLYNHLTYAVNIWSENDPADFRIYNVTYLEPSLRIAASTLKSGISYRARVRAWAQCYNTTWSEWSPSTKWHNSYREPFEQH
Experimental: as §1, §2

hIL-4Rα-Mu240 = molecular target: T6, hIL-4Rα-Mu240 (human, UniProt P24394 26-232); test: SPR, Biacore T200, by the methods of Example 2
T6 construct: Printed positions fit the mature protein; also called D66A/D67A/V68R; not shown: C-terminal his-tag
T6 chain: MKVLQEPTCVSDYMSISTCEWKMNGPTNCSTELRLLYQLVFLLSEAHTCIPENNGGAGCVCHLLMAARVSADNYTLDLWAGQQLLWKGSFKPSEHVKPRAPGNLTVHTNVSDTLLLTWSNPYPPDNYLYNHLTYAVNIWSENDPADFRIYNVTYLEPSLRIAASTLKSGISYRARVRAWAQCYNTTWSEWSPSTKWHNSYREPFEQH
Experimental: as §1, §2

[1] = molecular target: IL-4Rα on human cells (HEK Blue IL-4/IL-13, A549, TF-1, HFL-1, PBMCs) (human, UniProt P24394 26-825); test: cell-based or functional assay
hIL-4Rα-Mu245 = molecular target: T7, hIL-4Rα-Mu245 (human, UniProt P24394 26-232); test: SPR, Biacore T200, by the methods of Example 2
T7 construct: Printed positions fit the mature protein; also called A71L/D72R/N73A; not shown: C-terminal his-tag
T7 chain: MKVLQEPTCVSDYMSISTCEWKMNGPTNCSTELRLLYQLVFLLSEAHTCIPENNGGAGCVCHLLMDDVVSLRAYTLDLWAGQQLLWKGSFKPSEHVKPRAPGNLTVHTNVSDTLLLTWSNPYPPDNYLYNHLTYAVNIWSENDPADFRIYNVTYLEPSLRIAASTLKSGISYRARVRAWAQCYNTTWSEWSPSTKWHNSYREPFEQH

hIL-4Rα-Mu244 = molecular target: T8, hIL-4Rα-Mu244 (human, UniProt P24394 26-232); test: SPR, Biacore T200, by the methods of Example 2
T8 construct: Printed positions fit the mature protein; also called S70Q/A71L/D72R; not shown: C-terminal his-tag
T8 chain: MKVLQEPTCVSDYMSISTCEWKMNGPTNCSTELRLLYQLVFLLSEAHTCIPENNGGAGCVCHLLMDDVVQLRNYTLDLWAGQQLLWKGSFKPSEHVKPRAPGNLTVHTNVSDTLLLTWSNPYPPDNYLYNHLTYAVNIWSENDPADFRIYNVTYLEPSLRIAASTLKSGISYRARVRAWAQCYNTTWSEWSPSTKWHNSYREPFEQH

[2] = molecular target: T9, human IL-4Rα (Shanghai Novoprotein Technology Co., Ltd) (human, UniProt P24394 26-232); test: SPR, Biacore T200, antibody captured on protein A, antigen as analyte, 25 C, 1:1 model
T9 construct: Bought protein; also called hIL-4Rα; human interleukin-4 receptor alpha
Experimental: as §1

B1: Dupilumab (antibody, V domains shown)
VH: EVQLVESGGGLEQPGGSLRLSCAGSGFTFRDYAMTWVRQAPGKGLEWVSSISGSGGNTYYADSVKGRFTISRDNSKNTLYLQMNSLRAEDTAVYYCAKDRLSITIRPRYYGLDVWGQGTTVTVSS
VL: DIVMTQSPLSLPVTPGEPASISCRSSQSLLYSIGYNYLDWYLQKSGQSPQLLIYLGSNRASGVPDRFSGSGSGTDFTLKISRVEAEDVGFYYCMQALQTPYTFGQGTKLEIKR
Kd (hIL-4Rα-Mu239): 0.223 nM
koff (hIL-4Rα-Mu239): 5.63e-05 s⁻¹
kon (hIL-4Rα-Mu239): 253000 M⁻¹ s⁻¹
Kd (hIL-4Rα-Mu453): 0.196 nM
koff (hIL-4Rα-Mu453): 3.78e-05 s⁻¹
kon (hIL-4Rα-Mu453): 193000 M⁻¹ s⁻¹
Kd (hIL-4Rα-Mu243): 0.0361 nM
koff (hIL-4Rα-Mu243): 3.41e-05 s⁻¹
kon (hIL-4Rα-Mu243): 945000 M⁻¹ s⁻¹
Kd (hIL-4Rα-Mu241): 41.2 nM
koff (hIL-4Rα-Mu241): 0.00444 s⁻¹
kon (hIL-4Rα-Mu241): 108000 M⁻¹ s⁻¹
Kd (hIL-4Rα-Mu242): 27.3 nM
koff (hIL-4Rα-Mu242): 0.00357 s⁻¹
kon (hIL-4Rα-Mu242): 131000 M⁻¹ s⁻¹
Kd (hIL-4Rα-Mu240): 4.07 nM
koff (hIL-4Rα-Mu240): 0.000421 s⁻¹
kon (hIL-4Rα-Mu240): 103000 M⁻¹ s⁻¹
IC50, IL-4-induced CCL-11 release activity in HFL-1 cells (FIG. 7(A)) [1]: 0.0968 µg/mL
IC50, IL-4-induced CCL-11 release activity in HFL-1 cells (FIG. 7(B)) [1]: 0.0334 µg/mL
IC50, IL-4-induced CCL-17 release activity in A549 cells (FIG. 5(A)) [1]: 0.0449 µg/mL
IC50, IL-4-induced CCL-17 release activity in A549 cells (FIG. 5(B)) [1]: 0.0449 µg/mL
IC50, IL-4-induced CCL-17 release activity in PBMCs (FIG. 9(A)) [1]: 0.029 µg/mL
IC50, IL-4-induced CCL-17 release activity in PBMCs (FIG. 9(B)) [1]: 0.0436 µg/mL
IC50, IL-4-induced STAT6 phosphorylation activity in HEK Blue IL-4/IL-13 cells (FIG. 4(A)) [1]: 0.00439 µg/mL
IC50, IL-4-induced STAT6 phosphorylation activity in HEK Blue IL-4/IL-13 cells (FIG. 4(B)) [1]: 0.00454 µg/mL
IC50, IL-4-induced proliferation activity of TF-1 cells (FIG. 6(A)) [1]: 0.0219 µg/mL
IC50, IL-4-induced proliferation activity of TF-1 cells (FIG. 6(B)) [1]: 0.0188 µg/mL
IC50, IL-13-induced CCL-11 release activity in HFL-1 cells (FIG. 7(C)) [1]: 0.0475 µg/mL
IC50, IL-13-induced CCL-11 release activity in HFL-1 cells (FIG. 7(D)) [1]: 0.0869 µg/mL
IC50, IL-13-induced CCL-17 release activity in A549 cells (FIG. 5(C)) [1]: 0.0373 µg/mL
IC50, IL-13-induced CCL-17 release activity in A549 cells (FIG. 5(D)) [1]: 0.0465 µg/mL
IC50, IL-13-induced CCL-17 release activity in PBMCs (FIG. 9(C)) [1]: 0.0984 µg/mL
IC50, IL-13-induced CCL-17 release activity in PBMCs (FIG. 9(D)) [1]: 0.082 µg/mL
IC50, IL-13-induced STAT6 phosphorylation activity in HEK Blue IL-4/IL-13 cells (FIG. 4(C)) [1]: 0.0128 µg/mL
IC50, IL-13-induced STAT6 phosphorylation activity in HEK Blue IL-4/IL-13 cells (FIG. 4(D)) [1]: 0.0127 µg/mL
IC50, IL-13-induced proliferation activity of TF-1 cells (FIG. 6(C)) [1]: 0.0205 µg/mL
IC50, IL-13-induced proliferation activity of TF-1 cells (FIG. 6(D)) [1]: 0.0149 µg/mL
Kd (hIL-4Rα-Mu245): > 10 nM
Kd (hIL-4Rα-Mu244): > 10 nM

B2: QX005N (HZD82-12) (antibody, V domains shown)
VH: EVQLVESGGGLVQPGGSLRLSCAASGFSLNSNAVGWVRQAPGKGLEYIGFINFSGITYYANWAKGRFTISRDNSKNTLYLQMNSLRAEDTAVYYCARGSAGSFDLWGQGTLVTVSS
VL: DIQMTQSPSSLSASVGDRVTITCQASESVYKNNYLAWYQQKPGKAPKLLIYRASNLASGVPSRFSGSGSGTDFTLTISSLQPEDFATYYCQGGYSSGMYPFGQGTKVEIK
notes: Humanized from rabbit clone #82, expressed as a full antibody in ExpiCHO-S cells (heavy chain 48.3 kDa, light chain 23.6 kDa)
Kd [2]: 0.207 nM
koff [2]: 9.9e-05 s⁻¹
kon [2]: 481000 M⁻¹ s⁻¹
IC50, IL-4-induced CCL-11 release activity in HFL-1 cells (FIG. 7(B)) [1]: 0.0643 µg/mL
IC50, IL-4-induced CCL-17 release activity in A549 cells (FIG. 5(B)) [1]: 0.0461 µg/mL
IC50, IL-4-induced CCL-17 release activity in PBMCs (FIG. 9(B)) [1]: 0.0678 µg/mL
IC50, IL-4-induced STAT6 phosphorylation activity in HEK Blue IL-4/IL-13 cells (FIG. 4(B)) [1]: 0.0065 µg/mL
IC50, IL-4-induced proliferation activity of TF-1 cells (FIG. 6(B)) [1]: 0.0193 µg/mL
IC50, IL-13-induced CCL-11 release activity in HFL-1 cells (FIG. 7(D)) [1]: 0.0895 µg/mL
IC50, IL-13-induced CCL-17 release activity in A549 cells (FIG. 5(D)) [1]: 0.0495 µg/mL
IC50, IL-13-induced CCL-17 release activity in PBMCs (FIG. 9(D)) [1]: 0.117 µg/mL
IC50, IL-13-induced STAT6 phosphorylation activity in HEK Blue IL-4/IL-13 cells (FIG. 4(D)) [1]: 0.0213 µg/mL
IC50, IL-13-induced proliferation activity of TF-1 cells (FIG. 6(D)) [1]: 0.0161 µg/mL

— patent US20220073631A1 (QYUNS THERAPEUTICS, published 2022)
